Positions count from the first letter of the chain named. Numbers in names are those of the source.
B1: GLS3000 N30L one-arm antibody (antibody, human IgG1, kappa, L234A L235A, N297A, name in Kabat numbering)
heavy: QVQLVESGGGVVQPGRSLRLSCAASGFTFSNAWMHWVRQAPGKGLEWVAQIKAKSNNYATYYAESVKGRFTISRDDSKNSLYLQMNSLKTEDTAVYYCRYVHYGAYYGVDAWGQGTTVTVSSASTKGPSVFPLAPSSKSTSGGTAALGCLVKDYFPEPVTVSWNSGALTSGVHTFPAVLQSSGLYSLSSVVTVPSSSLGTQTYICNVNHKPSNTKVDKKVEPKSCDKTHTCPPCPAPEAAGGPSVFLFPPKPKDTLMISRTPEVTCVVVDVSHEDPEVKFNWYVDGVEVHNAKTKPREEQYASTYRVVSVLTVLHQDWLNGKEYKCKVSNKALPAPIEKTISKAKGQPREPQVYTLPPSRCELTKNQVSLSCAVKGFYPSDIAVEWESNGQPENNYKTTPPVLDSDGSFFLVSKLTVDKSRWQQGNVFSCSVMHEALHNHYTQKSLSLSPDYKDDDDK
chain: EPKSSDKTHTCPPCPAPELLGGPSVFLFPPKPKDTLMISRTPEVTCVVVDVSHEDPEVKFNWYVDGVEVHNAKTKPREEQYNSTYRVVSVLTVLHQDWLNGKEYKCKVSNKALPAPIEKTISKAKGQPREPQVCTLPPSRDELTKNQVSLWCLVKGFYPSDIAVEWESNGQPENNYKTTPPVLDSDGSFFLYSKLTVDKSRWQQGNVFSCSVMHEALHNRYTQKSLSLSP
light: DIVMTQSPLSLPVTPGEPASISCRSSQSLVHSNRLTYLHWYQQKPGQAPRLLIYKVSNRFSGVPDRFSGSGSGTDFTLKISRVEAEDVGVYYCGQGTQVPYTFGQGTKLEIKRTVAAPSVFIFPPSDEQLKSGTASVVCLLNNFYPREAKVQWKVDNALQSGNSQESVTEQDSKDSTYSLSSTLTLSKADYEKHKVYACEVTHQGLSSPVTKSFNRGEC
B2: GLS3000 N30R one-arm antibody (antibody, human IgG1, kappa, L234A L235A, N297A, name in Kabat numbering)
heavy: B1 heavy
chain: B1 chain
light: B1 light with L35R
B3: GLS3000 N30T one-arm antibody (antibody, human IgG1, kappa, L234A L235A, N297A, name in Kabat numbering)
heavy: B1 heavy
chain: B1 chain
light: B1 light with L35T
B4: GLS3000 N53D one-arm antibody (antibody, human IgG1, kappa, L234A L235A, N297A, name in Kabat numbering)
heavy: B1 heavy
chain: B1 chain
light: B1 light with L35N, N58D
B5: GLS3000 N53G one-arm antibody (antibody, human IgG1, kappa, L234A L235A, N297A, name in Kabat numbering)
heavy: B1 heavy
chain: B1 chain
light: B1 light with L35N, N58G
B6: GLS3000 P95A one-arm antibody (antibody, human IgG1, kappa, L234A L235A, N297A, name in Kabat numbering)
heavy: B1 heavy
chain: B1 chain
light: B1 light with L35N, P100A
B7: GLS3000 N53R one-arm antibody (antibody, human IgG1, kappa, L234A L235A, N297A, name in Kabat numbering)
heavy: B1 heavy
chain: B1 chain
light: B1 light with L35N, N58R
B8: GLS3000 N53Y one-arm antibody (antibody, human IgG1, kappa, L234A L235A, N297A, name in Kabat numbering)
heavy: B1 heavy
chain: B1 chain
light: B1 light with L35N, N58Y
B9: GLS3000 P95D one-arm antibody (antibody, human IgG1, kappa, L234A L235A, N297A, name in Kabat numbering)
heavy: B1 heavy
chain: B1 chain
light: B1 light with L35N, P100D
B10: GLS3000 N30S one-arm antibody (antibody, human IgG1, kappa, L234A L235A, N297A, name in Kabat numbering)
heavy: B1 heavy
chain: B1 chain
light: B1 light with L35S
B11: GLS3000 N30P one-arm antibody (antibody, human IgG1, kappa, L234A L235A, N297A, name in Kabat numbering)
heavy: B1 heavy
chain: B1 chain
light: B1 light with L35P
B12: GLS3000 N53E one-arm antibody (antibody, human IgG1, kappa, L234A L235A, N297A, name in Kabat numbering)
heavy: B1 heavy
chain: B1 chain
light: B1 light with L35N, N58E
B13: GLS3000 P95G one-arm antibody (antibody, human IgG1, kappa, L234A L235A, N297A, name in Kabat numbering)
heavy: B1 heavy
chain: B1 chain
light: B1 light with L35N, P100G
B14: GLS3000 N30W one-arm antibody (antibody, human IgG1, kappa, L234A L235A, N297A, name in Kabat numbering)
heavy: B1 heavy
chain: B1 chain
light: B1 light with L35W
B15: GLS3000 P95L one-arm antibody (antibody, human IgG1, kappa, L234A L235A, N297A, name in Kabat numbering)
heavy: B1 heavy
chain: B1 chain
light: B1 light with L35N, P100L
B16: GLS3000 N30Q one-arm antibody (antibody, human IgG1, kappa, L234A L235A, N297A, name in Kabat numbering)
heavy: B1 heavy
chain: B1 chain
light: B1 light with L35Q
B17: GLS3000 N53H one-arm antibody (antibody, human IgG1, kappa, L234A L235A, N297A, name in Kabat numbering)
heavy: B1 heavy
chain: B1 chain
light: B1 light with L35N, N58H
B18: GLS3000 N53T one-arm antibody (antibody, human IgG1, kappa, L234A L235A, N297A, name in Kabat numbering)
heavy: B1 heavy
chain: B1 chain
light: B1 light with L35N, N58T
B19: GLS3000 N53K one-arm antibody (antibody, human IgG1, kappa, L234A L235A, N297A, name in Kabat numbering)
heavy: B1 heavy
chain: B1 chain
light: B1 light with L35N, N58K
B20: GLS3000 N30Y one-arm antibody (antibody, human IgG1, kappa, L234A L235A, N297A, name in Kabat numbering)
heavy: B1 heavy
chain: B1 chain
light: B1 light with L35Y
B21: GLS3000 N53Q one-arm antibody (antibody, human IgG1, kappa, L234A L235A, N297A, name in Kabat numbering)
heavy: B1 heavy
chain: B1 chain
light: B1 light with L35N, N58Q
B22: GLS3000 N30M one-arm antibody (antibody, human IgG1, kappa, L234A L235A, N297A, name in Kabat numbering)
heavy: B1 heavy
chain: B1 chain
light: B1 light with L35M
B23: GLS3000 P95E one-arm antibody (antibody, human IgG1, kappa, L234A L235A, N297A, name in Kabat numbering)
heavy: B1 heavy
chain: B1 chain
light: B1 light with L35N, P100E
B24: GLS3000 P95S one-arm antibody (antibody, human IgG1, kappa, L234A L235A, N297A, name in Kabat numbering)
heavy: B1 heavy
chain: B1 chain
light: B1 light with L35N, P100S
B25: GLS3000 N53A one-arm antibody (antibody, human IgG1, kappa, L234A L235A, N297A, name in Kabat numbering)
heavy: B1 heavy
chain: B1 chain
light: B1 light with L35N, N58A
B26: GLS3000 N53I one-arm antibody (antibody, human IgG1, kappa, L234A L235A, N297A, name in Kabat numbering)
heavy: B1 heavy
chain: B1 chain
light: B1 light with L35N, N58I
B27: GLS3000 N53W one-arm antibody (antibody, human IgG1, kappa, L234A L235A, N297A, name in Kabat numbering)
heavy: B1 heavy
chain: B1 chain
light: B1 light with L35N, N58W
B28: GLS3000 N53S one-arm antibody (antibody, human IgG1, kappa, L234A L235A, N297A, name in Kabat numbering)
heavy: B1 heavy
chain: B1 chain
light: B1 light with L35N, N58S
B29: GLS3000 N53L one-arm antibody (antibody, human IgG1, kappa, L234A L235A, N297A, name in Kabat numbering)
heavy: B1 heavy
chain: B1 chain
light: B1 light with L35N, N58L
B30: GLS3000 N30V one-arm antibody (antibody, human IgG1, kappa, L234A L235A, N297A, name in Kabat numbering)
heavy: B1 heavy
chain: B1 chain
light: B1 light with L35V
B31: GLS3000 N53P one-arm antibody (antibody, human IgG1, kappa, L234A L235A, N297A, name in Kabat numbering)
heavy: B1 heavy
chain: B1 chain
light: B1 light with L35N, N58P
B32: GLS3000 N53V one-arm antibody (antibody, human IgG1, kappa, L234A L235A, N297A, name in Kabat numbering)
heavy: B1 heavy
chain: B1 chain
light: B1 light with L35N, N58V
B33: GLS3000 N53M one-arm antibody (antibody, human IgG1, kappa, L234A L235A, N297A, name in Kabat numbering)
heavy: B1 heavy
chain: B1 chain
light: B1 light with L35N, N58M
B34: GLS3000 N53F one-arm antibody (antibody, human IgG1, kappa, L234A L235A, N297A, name in Kabat numbering)
heavy: B1 heavy
chain: B1 chain
light: B1 light with L35N, N58F

target: T1, CD3ε homodimer protein (human, UniProt P07766 23-126, limits assumed); experiment: SPR Biacore T200, CD3ε homodimer on chip;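 note: Light-chain single-residue variant antibodies injected over amine-coupled CD3ε homodimer on a CM4 chip at 25 °C, bound amount divided by that of the GLS3000-containing antibody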
T1 construct: also called CD3 (CD3ε)
T1 sequence (P07766 23-126 limits assumed): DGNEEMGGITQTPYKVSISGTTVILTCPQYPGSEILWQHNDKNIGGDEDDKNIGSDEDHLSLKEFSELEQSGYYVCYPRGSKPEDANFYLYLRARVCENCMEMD

| ratio of amount bound vs unaltered GLS3000 | Binder |
| --- | --- |
| 0.7 | B1 |
| 1.86 | B2 |
| 0.29 | B3 |
| 0.34 | B4 |
| 0.76 | B5 |
| 0.63 | B6 |
| 1.58 | B7 |
| 0.67 | B8 |
| 0.24 | B9 |
| 0.29 | B10 |
| 0.31 | B11 |
| 0.54 | B12 |
| 0.37 | B13 |
| 0.99 | B14 |
| 0.24 | B15 |
| 0.87 | B16 |
| 1.18 | B17 |

| ratio of amount bound vs unaltered GLS3000 | Binder |
| --- | --- |
| 0.56 | B18 |
| 1.08 | B19 |
| 1.04 | B20 |
| 0.77 | B21 |
| 0.8 | B22 |
| 0.39 | B23 |
| 0.43 | B24 |
| 0.61 | B25 |
| 0.5 | B26 |
| 0.81 | B27 |
| 0.69 | B28 |
| 0.56 | B29 |
| 0.61 | B30 |
| 0.81 | B31 |
| 0.56 | B32 |
| 0.62 | B33 |
| 0.69 | B34 |

Reference: patent US20260049138A1 (Chugai, published 2026)
